Target: hFZD7 (Homo sapiens (Human), UniProt O75084)
Experiment: SPR equilibrium, Norrin immobilised, monomeric CRD analyte

Kd: > 100 µM
B1: Norrin (protein)
chain 1: DSDPRRCMRHHYVDSISHPLYKCSSKMVLLARCEGHCSQASRSEPLVSFSTVLKQPFRSSCHCCRPQTSKLKALRLRCSGGMRLTATYRYILSCHCEECNS
chain 2: B1 chain 1
